# Data reported in patent publication US10801046B2, “Methods and materials for biosynthesizing multifunctional, multivariate molecules via carbon chain modification” (INVISTA NORTH AMERICA S.A.R.L., priority 2016, dated 2020).
# Assays:
# [1] = system: heptanedioyl-ACP methyl ester; assay type: cell-based, Escherichia coli; conditions: for activity toward heptanedioyl-ACP methyl ester in vivo: top 150 hits screened in vivo; for impact on monomethyl heptanedioate production: 146 thioesterases screened; for monomethyl heptanedioate production: bioH deletion strain, TB supplemented with 1 mM IPTG and 2 mM L-rhamnose
# [2] = In vivo aminotransferase activity screening, 7-aminoheptanoate by LC-MS; assay type: cell-based, Escherichia coli; conditions: in vivo conversion of 7-oxoheptanoate to 7-aminoheptanoate, 120 aminotransferases screened
# Protocol: A 165-member aminotransferase library from Twist on IPTG-inducible T7- pUC expression vectors was co-transformed into T7 Express lysY/Iq with a constitutive expression pJ23150-derived plasmid bearing the phosphopantetheinyl transferase sfp from Bacillus subtilis, CAR_Srot from Invista and BioC from Serratia marcescens (UniprotKB Accession No. P36571 (SEQ ID NO: 165)). The resulting strains were incubated in 0.5 ml of rich media (terrific broth or LB containing 8% glycerol) supplemented with 0.4 mM IPTG and received 1 g/L monomethyl heptanedioate, 1 g/L heptanedioate, or no organic acid addition, depending on the experiment. Following incubation overnight at 37° C. in a shaking incubator, cells were pelleted and the supernatants were analyzed using LC-MS for 7-aminoheptanoate or monomethyl 7-aminoheptanoate. A Vibrio fluvialis aminotransferase (UniProtKB Accession No. F2XBU9 (SEQ ID NO: 128)) was used as a positive control.
Molecule,activity toward heptanedioyl-ACP methyl ester in vivo [1],also measured
"SEQ ID NO: 79: Thermincola potens thioesterase (protein, Thermincola potens (strain JR)) MEPYQTSIPVHYYEINNHRQASPVAILNYLEEAAIRHSESVGWGIEKLLANSRGWLLTRWSLHMQKYPQWGETVNIETWPYKFERFYATREFRISDREGRVLGAATTLWVFFDLRRKRPVRIPPDIYDAYGTGAERMVADEFADLPVVDEPEIKLEFRVRLSDIDTNDHVNNTKYVEWLLETVPLSVHNGFLLSSVEIAYKKETSYGSTVLCGIKETEAGERQTTFLHIILDKDSGTELARARTVWQKRSKI",showed activity toward heptanedioyl-ACP methyl ester,
"SEQ ID NO: 102: Peptoniphilus harei ACS-146-V-Sch2b thioesterase (protein, Peptoniphilus harei ACS-146-V-Sch2b, Peptoniphilus harei ACS-146-V-Sch2b thioesterase) MKIFCKEYEVMNFLSSDGDLKLNHLVSYLIETSNYQSIDLGLSNEKLLDMGYTWMIYKWKIKINRYPRSYEKIKIKTWASGFKNINAFREFEVYCQGEKIIEASAIFLLIDVEKRKAIKIPEVLAEIYGNNGNRIFKSIERVNEPSELEIANRFSYKILRRDLDFNNHVNNSVYLELIYEAVTDEYTHVKFKDINVNYINELKLGDEIVIDFYREEDRFYFFFKSKDQSQIYARICGVSETPIS",showed activity toward heptanedioyl-ACP methyl ester,impact on monomethyl heptanedioate production [1]: promising
"SEQ ID NO: 78: Opitutus terrae thioesterase (protein, Opitutus terrae (strain DSM 11246 / JCM 15787 / PB90-1), Opitutus terrae thioesterase) MPEKLTLNASVLYADVDRTEVLLLRGVFKFLQEAAITHANQFDLGSRAMATRGESWVLNRMAVAVHRYPRYEETMRIETWSRGIKGFKGYREFRVFDAQGAPLFSGSSLWLYVNMRTKSIIRVPAELAAEFPKRDDGAFFPELESLEFAPPAADARRVPIAIRYSDVDVNAHVNNTAYLDFLQEALARAGLSPRPQSIRIKYARAIPAEAETVRVAIEPRGTGAAFAIEDHDTIFAIGEVD",showed activity toward heptanedioyl-ACP methyl ester,
"SEQ ID NO: 122: Mesorhizobium sp. LC103 aminotransferase (protein, Mesorhizobium sp. LC103, Mesorhizobium sp; LC103 aminotransferase) MLDKPPLSNLQARDVASVLHPYTPLHKLETMGPLVIERGEGVYVYDTQGKAYIEGMSGLWCAGLGFGDEEMIDAATEQLRTLPYYHLFGAKGTESAIELAEKLKEIAPVPISKVFFTSSGSEANDTQVKLAWYLNNALGRPNKKKIISRQKAYHGVTIMSASLTGLPYNHIGWDLPVDRVLHTDCPHYYRFGQEGESEAEFVNRMVKSLRDLIEREGPDTIAAMIAEPVMGAGGVIVPPEGYYPAIQAVLDEHDIIMISDEVINGFGRTGNWWGSQTLGMTPKTISAAKQMTSAYAPLGAVMVPEDIYQAYVSHSEKIGTFGHGFTYGGHPLGCALGVKAIEIYQKRDILGHVRSLSPQFERRMRKLTEHPLVGEARYCGLVGGVEIVADKKTKRPFDPKVGVGPQCAKFVEERGAILRAIGDTIALCPPMIIKEDELDELFDRLEKALDDTEAWVAKEGLRAL",,7-aminoheptanoate yield compared to the positive control (F2XBU9) [2]: higher 7-aminoheptanoate yields
"SEQ ID NO: 58: Spongiibacter sp. IMCC21906 thioesterase (protein, Spongiibacter sp. IMCC21906, Spongiibacter sp; IMCC21906 thioesterase) MTHFIQFLPGRISPRRALALLLVLLLQGALPRIVLADTILLLGDSLSAAYKIPVESSWPALLQDSIDEEHSLKNASVSGETTAGGLARLPALLAKNNTDILIIELGGNDGLRGYPLVRIRENIEKMIKLGQKKGAKVVLLGMHIPPNYGRRYADGFHNIYLSLAEENNTALLPFLLDGVAKQPRLMQGDGIHPTAEAQPIILQNVLSVLRPLLDSTN",showed activity toward heptanedioyl-ACP methyl ester,
"FatB2: plant thioesterase FatB2 from Cuphea hookeriana, fatty acid acyl-ACP thioesterase, positive control (protein, listed as Cuphea hookeriana) MVAAAASSAFFPVPAPGASPKPGKFGNWPSSLSPSFKPKSIPNGGFQVKANDSAHPKANGSAVSLKSGSLNTQEDTSSSPPPRTFLHQLPDWSRLLTAITTVFVKSKRPDMHDRKSKRPDMLVDSFGLESTVQDGLVFRQSFSIRSYEIGTDRTASIETLMNHLQETSLNHCKSTGILLDGFGRTLEMCKRDLIWVVIKMQIKVNRYPAWGDTVEINTRFSRLGKIGMGRDWLISDCNTGEILVRATSAYAMMNQKTRRLSKLPYEVHQEIVPLFVDSPVIEDSDLKVHKFKVKTGDSIQKGLTPGWNDLDVNQHVSNVKYIGWILESMPTEVLETQELCSLALEYRRECGRDSVLESVTAMDPSKVGVRSQYQHLLRLEDGTAIVNGATEWRPKNAGANGAISTGKTSNGNSVS",,monomethyl heptanedioate production higher than the negative control [1]: about 10 mg/L; monomethyl heptanedioate production [1]: approximately 14 mg/L
"SEQ ID NO: 81: Citrobacter rodentium thioesterase (protein, Citrobacter rodentium (strain ICC168), Citrobacter rodentium thioesterase) MVNFNNVFRWHLPFLFLILFTCRSVAADTLLILGDSLSAGYRMSASAAWPALLNDKWHSKTTIVNASISGDTSGQALARLPALLKQHQPRWVLVELGGNDGLRGFSPAQTEQTLRTILQNVKAASAEPLLMQIRLPANYGRRYNETFSAIYPKLASEFDIPLLPFFMEEVYLKPQWMQDDGIHPNRDAQPFIADWMAKQLSPLVKYES",showed activity toward heptanedioyl-ACP methyl ester,
"SEQ ID NO: 68: Agathobacter rectalis DSM 17629 thioesterase (protein, Eubacterium rectale DSM 17629, Agathobacter rectalis DSM 17629 thioesterase) MAFSFDSRIRYSEVDSSCRLSLTGLTNYFQDCSVFHSQSHDVGIRFLADNHIAWVLSSWQICINRLPLLNEQVKISTWAYGMKAFYGYRNFTLEDAGGSTLAYANSVWVLVDTRTGRPVKVPQEFADTYGLEPQLEMECAKRKLHIPDDMEKKGEIEVPQFFIDSNHHMNNEKYVMLAQQLLPNDFEISELRVEYRKEAKLGDTVISYVKYTSKSVTVVLADTDKKPYSVVEFLSKPVPGK",showed activity toward heptanedioyl-ACP methyl ester,
"SEQ ID NO: 77: Spirochaeta smaragdinae thioesterase (protein, listed as Sediminispirochaeta smaragdinae, Sediminispirochaeta smaragdinae (strain DSM 11293 / JCM 15392 / SEBR 4228), Spirochaeta smaragdinae thioesterase) MKQVSRYTTEHTVMYSETDARGVLSLPSFFALFQEAALLHAEELGFGETYSKQENLMWVLSRLLLEIDAFPKHRDRIRLSTWPKQPQGPFAIRDYILESEEGTVCARATSSWLLLKLDTMRPIRPQTIFANLSMEGIGLAVEGTAPKISEIDNDSKQEMEVTARYSDLDQNNHVNNTRYVRWFLDCYTPEEITTSGNLHFAINYLQAASYSDKLLLRRYDTESDSSVYGYLEDGTPSFSARIERKSD",showed activity toward heptanedioyl-ACP methyl ester,
"SEQ ID NO: 80: Clostridium sp. CAG:306 thioesterase (protein, Clostridium sp. CAG:306, Clostridium sp; CAG:306 thioesterase) MLFTKEYEIKYYEQNVNGDLKESALLNFLQDIATLSAESLGFGPSFVFANNYAWVVLKYHIELFAPLRNLSSIVIKTEPRGIAKLYAYRDFELYTKDGQCIGKAVSTWVLIDICTRKLLNTQKILADFMAPYQKRETDLVYEKIDSPDELMYQEVFDVRFDDIDVNRHANNSNYIVWALETLPVDFRLKHSPKTIDIKYKKEIGINSRVLSEAQQILTDGNVQTLHVIKDEQNAQDLTSLKIVWQ",showed activity toward heptanedioyl-ACP methyl ester,
"SEQ ID NO: 74: Cellulosilyticum lentocellum thioesterase (protein, listed as Cellulosilyticum lentocellum, Cellulosilyticum lentocellum (strain ATCC 49066 / DSM 5427 / NCIMB 11756 / RHM5), Cellulosilyticum lentocellum thioesterase) MSRLKENYQVDFDVVDFTGKLSINGLCSYMQTVAAKHATKLGINFYKNGEKPTYYWILSRVKYEIDTYPRWEDLVSLETYPGGYEKLFAVRLFDLTDEKGELIGRITGDYLLMDAEKGRPVRIKGATGPLSVLDFPYEGRKIDKIEVPEVVLREQIRKAYYSELDLNGHMNNAHYIRWTVDMLPLEVLKENEIVSLQINYNASITYGVETKLIIGKNEAGNYLVAGNSLDDSVNYFTSEIILRKNK",showed activity toward heptanedioyl-ACP methyl ester,impact on monomethyl heptanedioate production [1]: promising
"SEQ ID NO: 72: Terrisporobacter othiniensis thioesterase (protein, listed as Terrisporobacter othiniensis) MERVFTKEYEVTYRDTDARGECFLTSYMNFMADCGLSQDEKYGFVIADMVKENHTWMLVDYEITIYKYVKYKEKLRAITYIEGMNKFYAVRYFKIYNDKDDLILEGKTLVILVDSKKRRPLSIPDEHYKAYGVEEKTPTIGRNKLKLSKCKNVDYKKEFNVRYSDIDLNLHVGNVTYLGWILETIPFEIMTDYKIYSVKIKYQKELTYGDKVSVKTEMEYNDNNISAYHEIINESEEVVALLETHWNEI",showed activity toward heptanedioyl-ACP methyl ester,impact on monomethyl heptanedioate production [1]: promising; monomethyl heptanedioate production [1]: 48 mg/L
